{"source": "patent US20060239990A1", "about": "“Protein Arginine N-Methyltransferase 2 (PRMT-2)” (priority 2003, published 2006)", "key": {"[1]": {"test_system": "NF-κB", "test": "NF-κB luciferase reporter assay in 293T cells", "format": "cell-based, human", "protocol": "Cell culture, transfection, and reporter gene assays. The E1A-transformed, human kidney cell line, 293, and NIH-3T3 cells were maintained in Dulbecco's Modified Eagle Medium (DMEM) supplemented with 10% fetal calf serum and penicillin-streptomycin at 37° C. in 5% carbon dioxide in tissue culture grade Petri dishes. PRMT-2−/− mouse embryo fibroblasts (MEFs) and wild type MEFs were prepared from day 13.5 embryos and maintained in DMEM supplemented with 10% fetal calf serum. MEFs at passage 4 were used in this experiment. Lipofectamine Plus™ reagent (Boehringer Mannheim) was used to transfect both 293 and NIH-3T3 cells according to directions from the manufacturer. […] TNF-α stimulation of cells was done using recombinant TNF-α (200 U/ml) for 12 hours. […] CAT assays were performed essentially as described in Leung, K. & Nabel, G. J. Nature 333, 776-778 (1988). To analyze the κB-reporter activity in MEFs, cells were transfected with the reporter (2×kB-Luc) and PRL-TK vector (Promega) using FuGENE6 transfection reagent (Roche). Luciferase activity was analyzed by Dual-Luciferase Reporter Assay System (Promega).\nTo map the domains responsible for inhibition of HIV transcription, truncation and point mutations were made in PRMT2 (FIG. 1D) and co-transfected with an NF-κB reporter in 293T cells. PRMT2-A represents an alternatively spliced form of PRMT2 found in the expressed sequence tag (EST) database. This isoform contains the first 218 amino acids of PRMT2 and differs from full length PRMT2 by the absence of the less conserved COOH-terminal domain. PRMT2-N was generated by introducing a stop codon after amino acid 95 before the putative Ado-Met domain of PRMT2. To analyze the role of the Ado-Met domain further, another mutant, PRMT2-4A, was prepared in which 141ILDV144 (SEQ ID NO:5) in this region were altered to four consecutive alanines to compare the effects of point mutations in this highly conserved region.\nThe mechanism and site of action of PRMT2 in the NF-κB signaling pathway was further defined by co-transfection of PRMT2 and its mutants with different regulators in this pathway with an NF-κB reporter in 293T cells (FIG. 2D)."}, "[2]": {"test_system": "STAT3", "test": "STAT3 arginine methylation in transfected HEK293 cells", "format": "cell-based", "conditions": "24 hr after transfection, α-metR immunoblot", "protocol": "Vascular smooth muscle cells (VSMC) were prepared from the thoracic aorta of 12-week-old-male wild-type and PRMT-2^−/− mice by the explant method. Mouse embryo fibroblasts (MEFs) were prepared from 13.5-day wild-type and PRMT-2^−/− embryos. VSMCs and MEFs were cultured in Dulbecco's modified Eagle's medium (DMEM) containing 10% fetal calf serum (FCS) at 37° C. in a humidified atmosphere of 95% air-5% CO2. The integrity of PRMT-2 expression in the established VSMCs and MEFs lines was confirmed by Western and immunofluorescence analysis (data not shown). Quiescent VSMC (3-5th passages) that had been serum-starved for 48 hr were used in the following experiments. HEK293 cells were also grown in DMEM plus 10% FCS and were transiently transfected with FuGENE6 transfection reagent (Roche Applied Science, Indianapolis, Ind.) according to the manufacture's protocol. For each transfection, 2 μg of expression construct for mouse PRMT-2 and 8 μg for mouse STAT3 were used. After 24-48 hr of transfection, cells were used for the following experiments.\nImmunoprecipitation of STAT3 was performed as follows. […]"}, "[3]": {"test_system": "E2F1", "test": "E2F reporter assay (GAL4-E2F1 activator, luciferase)", "format": "cell-based", "protocol": "HeLa cells, U2OS cells, and Saos2 cells were seeded at a density of 5×10^4 per well in 24-well plates. Cells were transfected 24 hours later with the indicated plasmid and with 20 ng of pRL-TK (Promega) as an internal control to normalize transfection efficiency. The amount of CMV promoter in the transfection was kept constant using empty vector. Cells were harvested at 30 or 36 hour after transfection and luciferase activity was analyzed by Dual-Luciferase Reporter Assay System (Promega). Luciferase activity was measured as a ratio of Firefly to Renilla. To study endogenous E2F activity in MEFs, PRMT-2^+/+ or PRMT-2^−/− MEFs were seeded at a density of 3×10^5 per well in 6-well plates. Cells were transfected 24 hours later with 3 μg of E2F4B-Luc and 10 ng of pRL-TK plasmid. Cells were harvested at 36 hour after transfection and analyzed for luciferase activity as described above."}}, "data": [{"molecule": "PRMT2: human PRMT-2 polypeptide, SEQ ID NO:2, expressed from pVR1012 vector with HA-tag (protein, listed as Homo sapiens, HA tag) MATSGDCPRSESQGEEPAECSEAGLLQEGVQPEEFVAIADYAATDETQLSFLRGEKILILRQTTADWWWGERAGCCGYIPANHVGKHVDEYDPEDTWQDEEYFGSYGTLKLHLEMLADQPRTTKYHSVILQNKESLTDKVILDVGCGTGIISLFCAHYARPRAVYAVEASEMAQHTGQLVLQNGFADIITVYQQKVEDVVLPEKVDVLVSEWMGTCLLFEFMIESILYARDAWLKEDGVIWPTMAALHLVPCSADKDYRSKVLFWDNAYEFNLSALKSLAVKEFFSKPKYNHILKPEDCLSEPCTILQLDMRTVQISDLETLRGELRFDIRKAGTLHGFTAWFSVHFQSLQEGQPPQVLSTGPFHPTTHWKQTLFMMDDPVPVHTGDVVTGSVVLQRNPVWRRHMSVALSWAVTSRQDPTSQKVGEKVFPIWR", "values": [{"measurement": "NF-κB activity", "setting": "[1]; 1 μg expression construct, 100 ng 5 κB luciferase reporter", "value": "inhibited NF-κB activity"}, {"measurement": "IKK2- and p65-induced NF-κB activity", "setting": "[1]; κB luciferase reporter, 48 hrs", "value": "inhibited both IKK2- and p65-induced NF-κB activity"}, {"measurement": "Stat3 methylation", "setting": "[2]", "value": "endogenous methylated STAT3 was detected"}, {"measurement": "E2F1-induced promoter activity", "setting": "[3]; HeLa cells, in the presence of the E2F1 activator", "value": "repressed E2F1-induced promoter activity in a dose-dependent manner"}, {"measurement": "E2F1 activity", "setting": "[3]; Saos 2 cells (RB-deficient), without RB", "value": "did not repress E2F1 activity"}, {"measurement": "E2F repression", "setting": "[3]; Saos 2 cells co-transfected with RB", "value": "E2F repression by PRMT2 in a dose-dependent manner was observed"}]}]}
